Reference: patent publication US20030203869A1

Key:
[1] = target: purified HLA-A2.1 molecules (human); assay: inhibition of binding of a labeled reference peptide to purified HLA-A2.1; conditions: remark: other sources report otherwise
[2] = target: purified HLA-A11 molecules (human); assay: inhibition of binding of a labeled reference peptide to purified HLA-A11

| Binder | IC50 [1] | IC50 [2] |
| --- | --- | --- |
| WLSLLVPFV (modifications not checked) [HBV Env 335 (HBV env 335-343) CTL epitope peptide …] | 5 nM | – |
| TVYYGVPVWK (modifications not checked) [HIV Env 49 (HIV env 49-58) CTL epitope peptide …] | – | 4 nM |
